Measurements published in PMC3635990, “Vpu Binds Directly to Tetherin and Displaces It from Nascent Virions” (PLoS Pathogens, 2013).
Residue numbers refer to the chain shown, from its start. Names may count otherwise.

Molecular target: the molecule itself
Experiment: cross-linking; unfractionated whole cell lysates of the oxidised, co-transfected 293T cells of Figure 1B; non-reducing SDS-PAGE (Bio-Rad), Western blot; monomer to dimer

B1: Tetherin^CC/SS-I46C-HA (natural protein)
chain: MASTSYDYSRVPMEDGDKRSKLLLGIGILVLLIIVILGVPLIIFTCKANSEACRDGLRAVMECRNVTHLLQQELTEAQKGFQDVEAQAATCNHTVMALMASLDAEKAQGQKKVEELEGEITTLNHKLQDASAEVERLRRENQVLSVRIADKKYYPSSQDSS
notes: Tetherin (Bst2/CD317/HM1.24), human; also called TetherinI46C; Teth^CC/SS-I46C-HA; source: HEK293T, co-transfected, in cells and lysate
stoichiometry N: 2

B2: Tetherin^CC/SS-T45C-HA (natural protein)
chain: B1 chain with T45C, C46I
notes: Tetherin (Bst2/CD317/HM1.24), human; also called TetherinT45C; source: HEK293T, co-transfected, in cells and lysate
stoichiometry N: 2
